According to the supplement of paper PMC11316812:
± gives the standard deviation of the averaged measurements.

Tests used:
hTERT-HMEC = experiment: percentage of EdU-negative (G0-arrested) nuclei per well, 72 h; higher = more G0 arrest; conditions: reference: sequence is the full UniProt precursor, the tested protein was the secreted form or ectodomain
MCF7 = experiment: as above; conditions: reference: sequence is the full UniProt precursor, the tested protein was the secreted form or ectodomain
[1] = protein concentration 0.0357143 µM
[2] = protein concentration 0.357143 µM
[3] = protein concentration 0.0225 µM
[4] = protein concentration 0.03125 µM
[5] = protein concentration 0.3125 µM
[6] = protein concentration 0.00975 µM
[7] = protein concentration 0.0975 µM
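Note: secreted proteins added to cultured cells, EdU pulse at the end, nuclei found by Hoechst imaging, EdU status from nuclear versus surrounding ring intensity ratio, PBS as neutral control.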

Sequence | percentage of EdU-negative (hTERT-HMEC; [3]) | percentage of EdU-negative (hTERT-HMEC; protein concentration 0.225 µM) | percentage of EdU-negative (MCF7; [3]) | percentage of EdU-negative (MCF7; protein concentration 0.225 µM) | further results
MMVVLLGATTLVLVAVAPWVLSAAAGGKNLKSPQKVEVDIIDDNFILRWNRSDESVGNVTFSFDYQKTGMDNWIKLSGCQNITSTKCNFSSLKLNVYEEIKLRIRAEKENTSSWYEVDSFTPFRKAQIGPPEVHLEAEDKAIVIHISPGTKDSVMWALDGLSFTYSLVIWKNSSGVEERIENIYSRHKIYKLSPETTYCLKVKAALLTSWKIGVYSPVHCIKTTVENELPPPENIEVSVQNQNYVLKWDYTYANMTFQVQWLHAFLKRNPGNHLYKWKQIPDCENVKTTQCVFPQNVFQKGIYLLRVQASDGNNTSFWSEEIKFDTEIQAFLLPPVFNIRSLSDSFHIYIGAPKQSGNTPVIQDYPLIYEIIFWENTSNAERKIIEKKTDVTVPNLKPLTVYCVKARAHTMDEKLNKSSVFSDAVCEKTKPGNTSKIWLIVGICIALFALPFVIYAAKVFLRCINYVFFPSLKPSSSIDEYFSEQPLKNLLLSTSEEQIEKCFIIENISTIATVEETNQTDEDHKKYSSQTSQDSGNYSNEDESESKTSEELQQDFV |  |  |  |  | percentage of EdU-negative (hTERT-HMEC; [1]): 4.55 ± 0.7%; percentage of EdU-negative (hTERT-HMEC; [2]): 5.5 ± 0.82%; percentage of EdU-negative (MCF7; [1]): 23.4 ± 0.79%; percentage of EdU-negative (MCF7; [2]): 31.7 ± 1.5%
MMWPMHTPLLLLTALMVAVAGSASAQSRTLAGGIHATDLNDKSVQCALDFAISEYNKVINKDEYYSRPLQVMAAYQQIVGGVNYYFNVKFGRTTCTKSQPNLDNCPFNDQPKLKEEEFCSFQINEVPWEDKISILNYKCRKV | 4.35 ± 0.28% | 6.17 ± 0.2% | 25.28 ± 0.24% | 25.3 ± 2% | 
MNAFLLSALCLLGAWAALAGGVTVQDGNFSFSLESVKKLKDLQEPQEPRVGKLRNFAPIPGEPVVPILCSNPNFPEELKPLCKEPNAQEILQRLEEIAEDPGTCEICAYAACTGC | 5.03 ± 0.081% | 5.29 ± 0.21% | 27.03 ± 0.26% | 24.3 ± 0.35% | 
MNCRELPLTLWVLISVSTAESCTSRPHITVVEGEPFYLKHCSCSLAHEIETTTKSWYKSSGSQEHVELNPRSSSRIALHDCVLEFWPVELNDTGSYFFQMKNYTQKWKLNVIRRNKHSCFTERQVTSKIVEVKKFFQITCENSYYQTLVNSTSLYKNCKKLLLENNKNPTIKKNAEFEDQGYYSCVHFLHHNGKLFNITKTFNITIVEDRSNIVPVLLGPKLNHVAVELGKNVRLNCSALLNEEDVIYWMFGEENGSDPNIHEEKEMRIMTPEGKWHASKVLRIENIGESNLNVLYNCTVASTGGTDTKSFILVRKADMADIPGHVFTRGMIIAVLILVAVVCLVTVCVIYRVDLVLFYRHLTRRDETLTDGKTYDAFVSYLKECRPENGEEHTFAVEILPRVLEKHFGYKLCIFERDVVPGGAVVDEIHSLIEKSRRLIIVLSKSYMSNEVRYELESGLHEALVERKIKIILIEFTPVTDFTFLPQSLKLLKSHRVLKWKADKSLSYNSRFWKNLLYLMPAKTVKPGRDEPEVLPVLSES |  |  |  |  | percentage of EdU-negative (hTERT-HMEC; protein concentration 0.03 µM): 4.552 ± 0.028%; percentage of EdU-negative (hTERT-HMEC; protein concentration 0.3 µM): 15.3 ± 3%; percentage of EdU-negative (MCF7; protein concentration 0.03 µM): 26.3 ± 1.8%; percentage of EdU-negative (MCF7; protein concentration 0.3 µM): 28.5 ± 0.78%
MNCVCRLVLVVLSLWPDTAVAPGPPPGPPRVSPDPRAELDSTVLLTRSLLADTRQLAAQLRDKFPADGDHNLDSLPTLAMSAGALGALQLPGVLTRLRADLLSYLRHVQWLRRAGGSSLKTLEPELGTLQARLDRLLRRLQLLMSRLALPQPPPDPPAPPLAPPSSAWGGIRAAHAILGGLHLTLDWAVRGLLLLKTRL |  |  |  |  | percentage of EdU-negative (hTERT-HMEC; [4]): 4.51 ± 0.15%; percentage of EdU-negative (hTERT-HMEC; [5]): 6.32 ± 0.64%; percentage of EdU-negative (MCF7; [4]): 26.7 ± 0.82%; percentage of EdU-negative (MCF7; [5]): 25.4 ± 0.86%
MNGFASLLRRNQFILLVLFLLQIQSLGLDIDSRPTAEVCATHTISPGPKGDDGEKGDPGEEGKHGKVGRMGPKGIKGELGDMGDQGNIGKTGPIGKKGDKGEKGLLGIPGEKGKAGTVCDCGRYRKFVGQLDISIARLKTSMKFVKNVIAGIRETEEKFYYIVQEEKNYRESLTHCRIRGGMLAMPKDEAANTLIADYVAKSGFFRVFIGVNDLEREGQYMFTDNTPLQNYSNWNEGEPSDPYGHEDCVEMLSSGRWNDTECHLTMYFVCEFIKKKK [Q9Y6Z7] | 5.319 ± 0.012% | 7.17 ± 1.1% | 24.36 ± 0.1% | 29.1 ± 0.55% | 
MNLAISIALLLTVLQVSRGQKVTSLTACLVDQSLRLDCRHENTSSSPIQYEFSLTRETKKHVLFGTVGVPEHTYRSRTNFTSKYNMKVLYLSAFTSKDEGTYTCALHHSGHSPPISSQNVTVLRDKLVKCEGISLLAQNTSWLLLLLLSLSLLQATDFMSL | 4.527 ± 0.039% | 6.24 ± 0.86% | 27.7 ± 0.2% | 26.6 ± 1.3% | 
MNLWLLACLVAGFLGAWAPAVHTQGVFEDCCLAYHYPIGWAVLRRAWTYRIQEVSGSCNLPAAIFYLPKRHRKVCGNPKSREVQRAMKLLDARNKVFAKLHHNTQTFQAGPHAVKKLSSGNSKLSSSKFSNPISSSKRNVSLLISANSGL |  |  |  |  | percentage of EdU-negative (hTERT-HMEC; [6]): 4.38 ± 0.21%; percentage of EdU-negative (hTERT-HMEC; [7]): 5.5688 ± 0.0047%; percentage of EdU-negative (MCF7; [6]): 24.3 ± 1.7%; percentage of EdU-negative (MCF7; [7]): 25.01 ± 0.22%
